In general, Kd refers to the equilibrium constant for the complex coming apart. Read a low Kd as a tighter complex. A word on the koff: it is a measure of how fast the partners let go of each other. Lower therefore signals slow dissociation. One may read the kon as the second-order rate constant of association. The low end stands for slow association, the high end for fast association.

These results are taken from US20160032014A1 (Amgen, published 2016).

Test [1] has as its target T1, human PCSK9 (self-cleaved, mature, secreted PCSK9 comprising amino acids 31 to 692 of SEQ ID NO: 2) (human, UniProt Q8NBP7 31-692, biotinylated in the ELISAs).
T1 construct: Limits 31-692 are stated for the immunogen; the assays only say human PCSK9; also called huPCSK9; rhu PCSK9
Nature of the test: SPR pH 7.4.

Test [2] addresses T1, human PCSK9 (self-cleaved, mature, …). Nature of the test: SPR pH 7.4. This is another data set of the same source.

Like-named read-outs stand apart in the source and are kept apart here.

B1: SS-15498 (antibody, V domains shown)
VH: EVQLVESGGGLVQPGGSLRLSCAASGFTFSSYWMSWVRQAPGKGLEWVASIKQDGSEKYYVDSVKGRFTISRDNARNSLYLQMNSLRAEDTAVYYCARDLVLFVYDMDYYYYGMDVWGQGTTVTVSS
VL: DIVMTQSPLSLPVTPGEPASISCRSSQSLLHSGNGYNYLDWYLQKPGQSPQLLIYLGLNRASGVPDRFSGSGSGTDFTLKISRVEAEDVGVYYCMQAIHTPLTFGGGTKVEIKR
notes: No entry of its own
In test [1], B1 returned a Kd of 0.123 nM, a koff of 4.14e-05 s⁻¹ and a kon of 335000 M⁻¹ s⁻¹. Further, in test [2], the Kd was found to be 0.123 nM, the koff came out at 4.14e-05 s⁻¹ and the kon was found to be 335000 M⁻¹ s⁻¹.

B2: SS-15499 (antibody, V domains shown)
VH: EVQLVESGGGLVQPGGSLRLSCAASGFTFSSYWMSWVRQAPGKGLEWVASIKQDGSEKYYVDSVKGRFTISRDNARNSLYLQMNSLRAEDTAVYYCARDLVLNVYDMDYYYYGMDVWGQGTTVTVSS
VL: DIVMTQSPLSLPVTPGEPASISCRSSQSLLHSGNGYNYLDWYLQKPGQSPQLLIYLGLNRASGVPDRFSGSGSGTDFTLKISRVEAEDVGVYYCMQAIHTPLTFGGGTKVEIKR
notes: No entry of its own
As to B2, in test [1], the Kd was determined as 0.199 nM, the koff was 5.98e-05 s⁻¹ and the kon was found to be 301000 M⁻¹ s⁻¹. Besides, in test [2], the Kd was 0.199 nM, the koff was 5.98e-05 s⁻¹ and the kon was 301000 M⁻¹ s⁻¹.

B3: 8A3 variant HC I107M / LC N33Y, Y35H, S57L, S61H (antibody, V domains shown)
VH: not shown
VL: DIVMTQSPLSLPVTPGEPASISCRSSQSLLHSYGHNYLDWYLQKPGQSPQLLIYLGLNRAHGVPDRFSGSGSGTDFTLKISRVEAEDVGVYYCMQALQTPLTFGGGTKVEIKR
In test [1], B3 returned a dissociation constant Kd of 0.572 nM, a koff of 0.000326 s⁻¹ and a kon of 570000 M⁻¹ s⁻¹. In test [2], this molecule gave a Kd of 0.572 nM, a koff of 0.000326 s⁻¹ and a kon of 570000 M⁻¹ s⁻¹.

B4: 8A3 variant HC WT / LC N33Y, Y35H, S57L, S61H (antibody, V domains shown)
VH: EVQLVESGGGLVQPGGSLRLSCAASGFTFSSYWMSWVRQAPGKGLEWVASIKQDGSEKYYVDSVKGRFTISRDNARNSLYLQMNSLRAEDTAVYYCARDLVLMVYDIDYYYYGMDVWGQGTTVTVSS
VL: DIVMTQSPLSLPVTPGEPASISCRSSQSLLHSYGHNYLDWYLQKPGQSPQLLIYLGLNRAHGVPDRFSGSGSGTDFTLKISRVEAEDVGVYYCMQALQTPLTFGGGTKVEIKR
Take B4: in test [1], the Kd was determined as 2.81 nM, the koff amounted to 0.00115 s⁻¹ and the association rate constant (kon) amounted to 410000 M⁻¹ s⁻¹. In test [2], this molecule returned a Kd of 2.81 nM, a koff of 0.00115 s⁻¹ and a kon of 410000 M⁻¹ s⁻¹.

B5: SS-15508 (antibody, V domains shown)
VH: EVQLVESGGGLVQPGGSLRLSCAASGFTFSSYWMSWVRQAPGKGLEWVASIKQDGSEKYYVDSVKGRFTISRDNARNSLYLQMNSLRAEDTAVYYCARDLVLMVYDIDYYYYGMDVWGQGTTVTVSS
VL: DIVMTQSPLSLPVTPGEPASISCRSSQSLLHSFGHNYLDWYLQKPGQSPQLLIYLGLNRAHGVPDRFSGSGSGTDFTLKISRVEAEDVGVYYCMQALQTPLTFGGGTKVEIKR
notes: HC WT, LC N33F, Y35H, S57L, S61H
In the case of B5, in test [1], binding was put at a Kd of 1.57 nM, the koff is 0.00092 s⁻¹ and the kon was 585000 M⁻¹ s⁻¹. Also, in test [2], the Kd amounted to 1.57 nM, the koff was 0.00092 s⁻¹ and the kon was 585000 M⁻¹ s⁻¹.

B6: 8A3 variant HC M103S/I107M / LC N33Y, Y35H, S57L, S61H (antibody, V domains shown)
VH: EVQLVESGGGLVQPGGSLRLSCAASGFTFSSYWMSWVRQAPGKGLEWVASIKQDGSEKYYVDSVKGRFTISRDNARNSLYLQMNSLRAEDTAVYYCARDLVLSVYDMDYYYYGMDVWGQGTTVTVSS
VL: DIVMTQSPLSLPVTPGEPASISCRSSQSLLHSYGHNYLDWYLQKPGQSPQLLIYLGLNRAHGVPDRFSGSGSGTDFTLKISRVEAEDVGVYYCMQALQTPLTFGGGTKVEIKR
In test [1], B6 returned a Kd of 1.28 nM, a koff of 0.000758 s⁻¹ and a kon of 594000 M⁻¹ s⁻¹. Moreover, in test [2], binding was put at a Kd of 1.28 nM, the koff stood at 0.000758 s⁻¹ and the on-rate (kon) was 594000 M⁻¹ s⁻¹.

B7: SS-15501 (antibody, V domains shown)
VH: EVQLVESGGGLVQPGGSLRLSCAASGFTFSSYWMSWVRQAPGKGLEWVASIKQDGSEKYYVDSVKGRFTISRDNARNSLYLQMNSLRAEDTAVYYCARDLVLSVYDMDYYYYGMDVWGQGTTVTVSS
VL: DIVMTQSPLSLPVTPGEPASISCRSSQSLLHSFGHNYLDWYLQKPGQSPQLLIYLGLNRAHGVPDRFSGSGSGTDFTLKISRVEAEDVGVYYCMQALQTPLTFGGGTKVEIKR
As for B7, in test [1], the Kd worked out at 0.804 nM, the koff is 0.000578 s⁻¹ and the kon came to 719000 M⁻¹ s⁻¹. In test [2], the affinity, expressed as Kd, was 0.804 nM; the off-rate constant (koff) came out at 0.000578 s⁻¹; the kon was found to be 719000 M⁻¹ s⁻¹.

B8: SS-15504 (antibody, V domains shown)
VH: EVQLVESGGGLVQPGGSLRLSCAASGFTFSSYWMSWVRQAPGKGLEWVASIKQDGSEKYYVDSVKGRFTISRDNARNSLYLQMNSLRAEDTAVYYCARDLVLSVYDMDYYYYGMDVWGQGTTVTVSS
VL: DIVMTQSPLSLPVTPGEPASISCRSSQSLLHSNGHNYLDWYLQKPGQSPQLLIYLGLNRAHGVPDRFSGSGSGTDFTLKISRVEAEDVGVYYCMQALQTPLTFGGGTKVEIKR
notes: HC M103S/I107M, LC Y35H, S57L, S61H
As for B8, in test [1], the Kd is 0.232 nM, the koff is 8.26e-05 s⁻¹ and the kon stood at 356000 M⁻¹ s⁻¹. In test [2], this molecule registered a Kd of 0.232 nM, a koff of 8.26e-05 s⁻¹ and a kon of 356000 M⁻¹ s⁻¹.

B9: SS-15505 (antibody, V domains shown)
VH: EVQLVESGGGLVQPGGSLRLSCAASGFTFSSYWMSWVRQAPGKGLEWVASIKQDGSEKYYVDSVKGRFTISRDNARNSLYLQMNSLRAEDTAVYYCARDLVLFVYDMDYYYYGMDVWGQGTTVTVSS
VL: DIVMTQSPLSLPVTPGEPASISCRSSQSLLHSNGHNYLDWYLQKPGQSPQLLIYLGLNRAHGVPDRFSGSGSGTDFTLKISRVEAEDVGVYYCMQALQTPLTFGGGTKVEIKR
notes: HC M103F/I107M, LC Y35H, S57L, S61H
As for B9, in test [1], the Kd amounted to 0.0763 nM, the koff came out at 1.98e-05 s⁻¹ and the kon is 260000 M⁻¹ s⁻¹. Also, in test [2], the affinity, expressed as Kd, was 0.0763 nM; the koff came to 1.98e-05 s⁻¹; the kon was 260000 M⁻¹ s⁻¹.

B10: 8A3 variant HC M103F/I107M / LC N33Y, Y35H, S57L, S61H (antibody, V domains shown)
VH: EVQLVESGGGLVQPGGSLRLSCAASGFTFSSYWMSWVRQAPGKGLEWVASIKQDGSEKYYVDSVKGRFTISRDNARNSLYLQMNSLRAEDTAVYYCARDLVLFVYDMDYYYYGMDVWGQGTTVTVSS
VL: DIVMTQSPLSLPVTPGEPASISCRSSQSLLHSYGHNYLDWYLQKPGQSPQLLIYLGLNRAHGVPDRFSGSGSGTDFTLKISRVEAEDVGVYYCMQALQTPLTFGGGTKVEIKR
With B10, in test [1], the affinity, expressed as Kd, was 0.528 nM; the koff turned out to be 0.000253 s⁻¹; the kon was 480000 M⁻¹ s⁻¹. In test [2], this molecule came in with a Kd of 0.528 nM, a koff of 0.000253 s⁻¹ and a kon of 480000 M⁻¹ s⁻¹.

B11: SS-15495 (antibody, V domains shown)
VH: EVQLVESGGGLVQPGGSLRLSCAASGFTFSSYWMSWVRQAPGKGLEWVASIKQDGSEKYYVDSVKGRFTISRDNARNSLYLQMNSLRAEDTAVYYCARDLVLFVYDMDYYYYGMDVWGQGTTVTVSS
VL: DIVMTQSPLSLPVTPGEPASISCRSSQSLLHSFGHNYLDWYLQKPGQSPQLLIYLGLNRAHGVPDRFSGSGSGTDFTLKISRVEAEDVGVYYCMQALQTPLTFGGGTKVEIKR
notes: HC M103F/I107M, LC N33F, Y35H, S57L, S61H
In test [1], B11 registered a Kd of 0.285 nM, a koff of 0.000152 s⁻¹ and an on-rate constant (kon) of 534000 M⁻¹ s⁻¹. In test [2], this molecule registered a Kd of 0.285 nM, a koff of 0.000152 s⁻¹ and a kon of 534000 M⁻¹ s⁻¹.

B12: SS-15506 (antibody, V domains shown)
VH: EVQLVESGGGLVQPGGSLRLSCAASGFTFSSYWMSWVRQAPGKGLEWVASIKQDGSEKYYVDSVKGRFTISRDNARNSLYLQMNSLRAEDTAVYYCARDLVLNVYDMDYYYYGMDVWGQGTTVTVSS
VL: DIVMTQSPLSLPVTPGEPASISCRSSQSLLHSNGHNYLDWYLQKPGQSPQLLIYLGLNRAHGVPDRFSGSGSGTDFTLKISRVEAEDVGVYYCMQALQTPLTFGGGTKVEIKR
notes: HC M103N/I107M, LC Y35H, S57L, S61H
With B12, in test [1], the Kd is 0.245 nM, the koff came out at 5.89e-05 s⁻¹ and the kon was 240000 M⁻¹ s⁻¹. In test [2], the Kd turned out to be 0.245 nM, the koff was found to be 5.89e-05 s⁻¹ and the kon was found to be 240000 M⁻¹ s⁻¹.

B13: SS-15500 (antibody, V domains shown)
VH: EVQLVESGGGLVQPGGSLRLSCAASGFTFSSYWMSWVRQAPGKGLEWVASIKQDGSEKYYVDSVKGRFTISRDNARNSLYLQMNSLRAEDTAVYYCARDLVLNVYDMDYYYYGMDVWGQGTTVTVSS
VL: DIVMTQSPLSLPVTPGEPASISCRSSQSLLHSYGHNYLDWYLQKPGQSPQLLIYLGLNRAHGVPDRFSGSGSGTDFTLKISRVEAEDVGVYYCMQALQTPLTFGGGTKVEIKR
In test [1], B13 came in with a Kd of 0.459 nM, a koff of 0.000304 s⁻¹ and a kon of 663000 M⁻¹ s⁻¹. In addition, in test [2], the Kd turned out to be 0.459 nM, the koff turned out to be 0.000304 s⁻¹ and the kon came out at 663000 M⁻¹ s⁻¹.

B14: SS-15496 (antibody, V domains shown)
VH: not shown
VL: DIVMTQSPLSLPVTPGEPASISCRSSQSLLHSFGHNYLDWYLQKPGQSPQLLIYLGLNRAHGVPDRFSGSGSGTDFTLKISRVEAEDVGVYYCMQALQTPLTFGGGTKVEIKR
notes: HC I107M, LC N33F, Y35H, S57L, S61H
B14: in test [1], the Kd is 0.292 nM, the koff is 0.000194 s⁻¹ and the kon came to 665000 M⁻¹ s⁻¹. In test [2], this molecule came in with a Kd of 0.292 nM, a koff of 0.000194 s⁻¹ and a kon of 665000 M⁻¹ s⁻¹.

B15: 8A3 variant HC M103N/I107M / LC N33Y, Y35H, S57L, S61H (antibody, V domains shown)
VH: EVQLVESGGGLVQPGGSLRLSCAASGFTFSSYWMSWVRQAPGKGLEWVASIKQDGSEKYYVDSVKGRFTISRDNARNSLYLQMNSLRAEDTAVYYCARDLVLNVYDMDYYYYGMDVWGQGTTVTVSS
VL: DIVMTQSPLSLPVTPGEPASISCRSSQSLLHSYGHNYLDWYLQKPGQSPQLLIYLGLNRAHGVPDRFSGSGSGTDFTLKISRVEAEDVGVYYCMQALQTPLTFGGGTKVEIKR
In test [1], B15 yielded a Kd of 0.819 nM, a koff of 0.000425 s⁻¹ and a kon of 519000 M⁻¹ s⁻¹. In test [2], the affinity, expressed as Kd, was 0.819 nM; the koff was determined as 0.000425 s⁻¹; the kon came out at 519000 M⁻¹ s⁻¹.
